From the supplement of paper PMC9112550, “Optimization of the antimicrobial peptide Bac7 by deep mutational scanning” (BMC Biology, 2022)

Test system: Escherichia coli TOP10
Experiment: shrunken log2 fold change of peptide-encoding DNA abundance (4.5 h post-induction vs induction); higher = less antimicrobial activity (less host growth inhibition)
Conditions: time post-induction: 4.5 h; library: site-saturation at positions 5, 18, 19, 20
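Also: peptides expressed intracellularly from a pBAD plasmid library in pooled LB shake-flask culture, induced with 0.3% L-arabinose, DNA abundance read by NGS, three biological replicates, DESeq2 with apeglm shrinkage.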

| Sequence | shrunken log2 fold change |
| --- | --- |
| RRIRDRPPRLPRPRPRPEQYPRP | 0.215 |
| RRIRARPPRLPRPRPRPFIQPRP | 0.0556 |
| RRIRHRPPRLPRPRPRPVATPRP | -0.079 |
| RRIRFRPPRLPRPRPRPYVQPRP | -0.0133 |
| RRIRRRPPRLPRPRPRPQNNPRP | 0.198 |
| RRIRRRPPRLPRPRPRPCTMPRP | -0.451 |
| RRIRARPPRLPRPRPRPRAEPRP | 0.983 |
| RRIRPRPPRLPRPRPRPQNFPRP | -0.0849 |
| RRIRKRPPRLPRPRPRPNQKPRP | 0.11 |
| RRIRVRPPRLPRPRPRPNWAPRP | -0.0443 |
| RRIRYRPPRLPRPRPRPITPPRP | -0.174 |
| RRIRARPPRLPRPRPRPHCCPRP | 0.134 |
| RRIRQRPPRLPRPRPRPMMYPRP | 0.0473 |
| RRIRERPPRLPRPRPRPKPLPRP | 0.104 |
| RRIRIRPPRLPRPRPRPRSFPRP | -0.0641 |
| RRIRNRPPRLPRPRPRPLSAPRP | -0.097 |
| RRIRCRPPRLPRPRPRPCIFPRP | -0.396 |
| RRIRHRPPRLPRPRPRPLRMPRP | -0.0592 |
| RRIRDRPPRLPRPRPRPECFPRP | 1.46 |
| RRIRKRPPRLPRPRPRPLCDPRP | 0.376 |
| RRIRPRPPRLPRPRPRPSNLPRP | -0.823 |
| RRIRCRPPRLPRPRPRPKRIPRP | -0.143 |
| RRIRWRPPRLPRPRPRPDPMPRP | 0.444 |
| RRIRARPPRLPRPRPRPEECPRP | 1.27 |
| RRIRSRPPRLPRPRPRPDVTPRP | -0.0165 |

| Sequence | shrunken log2 fold change |
| --- | --- |
| RRIRTRPPRLPRPRPRPIIWPRP | -0.0836 |
| RRIRYRPPRLPRPRPRPPLWPRP | 0.277 |
| RRIRLRPPRLPRPRPRPWALPRP | 0.0419 |
| RRIRGRPPRLPRPRPRPTEPPRP | 0.716 |
| RRIRVRPPRLPRPRPRPDYFPRP | -0.163 |
| RRIRQRPPRLPRPRPRPNIKPRP | -0.558 |
| RRIRSRPPRLPRPRPRPDARPRP | 0.1 |
| RRIRSRPPRLPRPRPRPLFQPRP | -0.126 |
| RRIRTRPPRLPRPRPRPDVRPRP | -0.31 |
| RRIRCRPPRLPRPRPRPAWEPRP | 0.0219 |
| RRIRGRPPRLPRPRPRPVDAPRP | 0.395 |
| RRIRQRPPRLPRPRPRPSYVPRP | -1.04 |
| RRIRLRPPRLPRPRPRPGIFPRP | -0.313 |
| RRIRHRPPRLPRPRPRPKVHPRP | -0.0663 |
| RRIRVRPPRLPRPRPRPRIWPRP | 0.468 |
| RRIRFRPPRLPRPRPRPYEKPRP | -0.075 |
| RRIRGRPPRLPRPRPRPMKYPRP | 0.0733 |
| RRIRQRPPRLPRPRPRPRCLPRP | 0.176 |
| RRIRRRPPRLPRPRPRPVEVPRP | 0.057 |
| RRIRCRPPRLPRPRPRPVASPRP | 0.149 |
| RRIRKRPPRLPRPRPRPPHHPRP | 0.322 |
| RRIRARPPRLPRPRPRPTKNPRP | 0.429 |
| RRIRYRPPRLPRPRPRPADFPRP | -0.0123 |
| RRIRHRPPRLPRPRPRPECSPRP | -0.0101 |
| RRIRDRPPRLPRPRPRPATGPRP | 0.312 |

| Sequence | shrunken log2 fold change |
| --- | --- |
| RRIRPRPPRLPRPRPRPNCSPRP | -0.132 |
| RRIRCRPPRLPRPRPRPCCTPRP | -0.238 |
| RRIRLRPPRLPRPRPRPDGRPRP | -0.00938 |
| RRIRHRPPRLPRPRPRPLWSPRP | -0.31 |
| RRIRIRPPRLPRPRPRPPSTPRP | 0.0126 |
| RRIRTRPPRLPRPRPRPPQEPRP | 0.0383 |
| RRIRLRPPRLPRPRPRPTPTPRP | 0.786 |
| RRIRFRPPRLPRPRPRPRQLPRP | -0.0618 |
| RRIRPRPPRLPRPRPRPEFYPRP | -0.173 |
| RRIRERPPRLPRPRPRPVFEPRP | -0.151 |
| RRIRNRPPRLPRPRPRPYVKPRP | -0.626 |
| RRIRGRPPRLPRPRPRPLWLPRP | 0.574 |
| RRIRPRPPRLPRPRPRPNQCPRP | -0.0767 |
| RRIRMRPPRLPRPRPRPVRIPRP | 0.238 |
| RRIRARPPRLPRPRPRPSNLPRP | -0.39 |
| RRIRCRPPRLPRPRPRPGLHPRP | -0.131 |
| RRIRGRPPRLPRPRPRPSGVPRP | 0.633 |
| RRIRSRPPRLPRPRPRPWDMPRP | -0.254 |
| RRIRGRPPRLPRPRPRPAQKPRP | 0.721 |
| RRIRLRPPRLPRPRPRPMPVPRP | 0.132 |
| RRIRIRPPRLPRPRPRPLLYPRP | 0.47 |
| RRIRLRPPRLPRPRPRPFIWPRP | 0.112 |
| RRIRTRPPRLPRPRPRPPIRPRP | -0.1 |
| RRIRCRPPRLPRPRPRPAVMPRP | 0.067 |
| RRIRSRPPRLPRPRPRPCIFPRP | -0.471 |
